According to the domain aggregation screens of Martell et al. (2025):

Assay: soluble fraction after stress (log2 fold change); higher = more stays soluble; pooled small domains, quantitative proteomics
Conditions: stress: 50 degC
Method in brief: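 Each library was heated to 50°C as a stress step. The libraries, made up of small protein domains, were pooled and analysed at high throughput by quantitative proteomics. The reported value is the base-two logarithm of the fold change in each protein's soluble amount after stress, taken as a measure of aggregation propensity. The higher the value, the more protein stays in solution.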

| Sequence | soluble fraction (log2) |
| --- | --- |
| HMGRAAEETETFRTQGELDARIKELQGQMRDAAANLEFERAAGLRDTLKRLRTRGLGLSASP | 0.0346 |
| HMGRENGTVKWFNTSKGFGFITRDDGGDVFVHFRSIQGEGHRALQEGQRVSYVVANRDKGLQAEDVTILN | 0.131 |
| HMGRKRLADYGLNDTEQKIVRKIADGLSNREIAQALYLSEGTVKNYITDILGKLELRDRTQIAIFYLREIG | -0.0293 |
| HMGRLTTKIVLYDRIENIVPERRKELVADIEKRIGVKVEVLEIGHVDFVRDAAWLKVSYYLAPGE | -1.06 |
| HMGRNSTPKEPLKKFEVSPITEKEVRILDGRFGPYITDGATNVTVPKTITIEEITFERALDMLAEKAAKGP | 0.0252 |
| HMGRPQISDELRNAIIEVAKDNRDWGYIRIQGQLKYLGYRVSTATIGKVLKKAGLEPQPDRRRK | -0.264 |
| HMGRPWRIGDVVNVSRPTGDGGGFTKGLITRIYPTTVQVTWNPDLQHARPWTTMEKKQYLIFVYHDDE | -2.86 |
| HMGRQTITLPDFSGQDLEQVKARLTEWGLVPEEKSVFSDSVPLGSVVRTVPAEGDEVSVGDTVTVYKSLGR | 0.0656 |
| HMGRRDLSWQPAAGGVSIDGLKAGEAWTLFGLNGRILKQGYAPEGQMSLAVNAGLFVLRGAESGVIRIAVA | -1.25 |
| HMGRSYTIKSGDTLWAIATRYYGNGAQYSKIYNANKGTIESVAKSRGFRSSQNGHWIFPGTSITI | -0.207 |
| HMGRTITVGIAEDADIKDIAKMLEEKGLISDYRLFVVQELLSAQHDKIKPGIYDLSTDMKAEEMLEILAG | -0.541 |
| HMGRTKEEIFNILKERIVTLQYEPGKILNEIELSEEFEVSRTPIRTVFQQLEAVKLVSIVPRYGVQVA | -1.27 |
| HMGRYATVPDVVGSTPEVARELIRSEGLRYVLSEETVYSDSDTGTVGRTDPESGTRMSADDEVVVYLS | 0.0355 |
| HMGRYVIQIASFSSKNNAIEAADKLGGFVVQSGRFYRVRTGPFATRGEADAALASARRVGYRDAFIDTS | -0.531 |
| HMGSAIAHAIASLPDRYRELLLLKYDTGYSEKEIAQLLGMTEANVKKTIQRAKAKLQTLLDEMEA | -0.81 |
| HMGSAKAQLYDLMNAHQVTRNQIQDIVAEKGYFPAGTPIENYPDDFVKGVLVGAWDQVHKAILDKEI | 0.0946 |
| HMGSEISLNAFNIPKGSVSVTAGGTKLVENQDYTVDYTLGRIKILNEGILNSGVPIQVNFENNTLFN | 0.0829 |
| HMGSEYILTIIPTPADATVFINGVKKNSASGVNGQILSWEVTKEGYIPQSGTFTINGKNETIEVVLQPQT | 0.00105 |
| HMGSFFSKATAPVRTTGGDGLYKHGSIWFNTSTGRLFVYIPDDRYTGLLDTHNGDIGYWVDVS | -2.2 |
| HMGSFGAMLKRNRKLAGLTQEQLAEKLDVSTVAVQNWESGKNQIRSEKLTKLSYLFNIPLETLIHEMLIS | -0.951 |
| HMGSFISADEALAKALSHAGLDQSAIRELEMDSELDDDVPHYSIDFKSGNLEYEYEISATDGSVLKFEQD | 0.105 |
| HMGSKEQELVILNNILERQLQAINLQKSAAGPMVNLRNVHNTLTKLVEAAGLKNVETYFTDPVIGAAQ | 0.0108 |
| HMGSNTLEDAYKVLGITPDATDDEVRKAYKKMVIQHHPDKVANLGEDVKKAATIKLQEINNAKEIIFKARN | 0.139 |
| HMGSQSYVAIVNERFKESDIVELGGSVGSRTGDIITLHFRNSSPNELKNITGIVYLQVANKVTPKL | -0.612 |
| HMGSTDTLEDALEAAEKISYPVIIKATAGGGGRGMKVASSLEELKKVYHTTKLEAKNAFGNDQVYIEKYL | 0.116 |
| HMGSTYGISRVDNETSRTHGWLVTIQRRGVIYRKHFSDGVFGGKQRSFAAAKEYRDEVIAAHP | -0.672 |

| Sequence | soluble fraction (log2) |
| --- | --- |
| HMGSVVATLRKLIIDGHYPAGTRLAEIPVANALGVSRTPVRLAFRTLQQEGLLQTVGKRGIVVRAF | -1.21 |
| HMGSWDDFFNAIRLDNPNTLQALLQRGFDPNTVDQQGTPALMRALQEQSYRAAEVLADHPQI | -0.459 |
| HMGTAGLSPWHKIAVLMIALGPEGASELMRHFGEDEVEQVVQAIADLKNVPSELQDAVLLEMEGALQEG | -0.00851 |
| HMGTDVFIMTGGTRKRGATWSYYFDLGKIDGKRQKKEKGGFKTKKEAETALAKAINEYNNAGA | -0.0903 |
| HMGTFIATVEANSLDIYKSMSSNETIGKANKGEVFQILEDMGSGYARVSYNDVEGYLSIRDGDATIEE | -0.356 |
| HMGTGADQVSWKTGDKVTHKKWGEGTVVKVSGSGNDKELDIAFPQQGVKRLLASFAPIKKVT | 0.168 |
| HMGTGQTNEKLAVLTNIQKTQEQILLTLGAKNPLVNLKQYRETLAKILSLSGYKNSNEFFLDPM | -0.0851 |
| HMGTGTYQVWSANGLGVRMRSGPGTGYRILAVYSVGTSVTVLQKGAYWSYIRVGSRTGYMMNQFLVSG | 0.139 |
| HMGTGVEQGKQYRTLKRDFDGASGIKVNGDFYRLRTSDTGMTELPAGTEVTFERFDGTTAVVHT | -0.0841 |
| HMGTHPGIDSGIISDILALKKELPTRSAAKIITMLTLAGKMEENSIHVKTVNRILYQYGYTRDTLS | -1.88 |
| HMGTITKRTNPSGAVVWRAQIRINKADMPTYSESKTFSKKSLATEWLKRREAEIEANPDLIL | -0.348 |
| HMGTKDVNAAPSAVGRTYDEAIEILNGYKAGYLEEYSDTVPKGTVISQSVQDGQVVIVVSLGPKPS | 0.0391 |
| HMGTKVGAPLPGTITEVKVKVGDTVKAGDAVIILEAMKMQNNIEAEVSGTVSSVLVKEGDTVMEGDALITI | 0.144 |
| HMGTLNLSQAYREWGMAEIEANRDYYGPVRFDDIAFQMSPAGQQLQARFVASYADRLHDAIEGEL | -0.304 |
| HMGTLRPKGTVVFANLPIAADAKEGDMYNISDQFTTTASFKEGAGNVIPAGSNVYRTDDGFWDVL | 0.00637 |
| HMGTPEQSAQFEQVLEELKNVPGPVMKAMQRAQDIYGYLPIEIQSRIGQAFGVSLEEVYGIATFYSQFNL | -1.68 |
| HMGTQKVQVVNGPINVRSGPGPTFEKIGMVEDQAVYQVVSKKDDWFQISLPGNKTAWVAGWLVKEIK | 0.0417 |
| HMGTRHPLPYAFAKAHTVLLEDDGDRLLLHAAENSGPSALGEILRLYDVDALERETASTLANRIAVAYAG | 0.00932 |
| HMGTSGLTIPRFVSLASGTVHMRAGPGVRYPITWIYKRLGTPLMVMAEHEFWRKVRDAEGTEGWMHRSLLS | -0.0684 |
| HMGTSIMIIIVKPETKKERVNDLIHWIESQNLRTHLSTGDYSTIIGVIGDTSKLDSELIRGLDIVENVKRV | -0.318 |
| HMGTSMDPPVIIVSDGKLIQKGLEVSGLKKQWLYDLIDRKHMKISDIFLLTADKTGKYNLIKRS | 0.0904 |
| HMGTSQSAVKAILAQLISDENKQKPYSDEALSRLLQQQGIDIARRTVAKYREALNIPPAHQRK | 0.101 |
| HMGTSRVQSILFDQSQWTINRAVHWLNTHHFISTKIDKTDKYLRFRQFDPNPDSHHATKRTSQGITFILE | -3.51 |
| HMGTTIAMSKLKQVLRWKEEGYSNRKIAQLVGLNKETVNNYISRANADSLSQKELLQLDDFVLDIRLRG | -1.32 |
| HMGTTTGKVNATGVNFRTGPSTSYSSMGKLGIDTAVTILGKSGDWYQVKVNSTGKTGYVFAKYITITSVV | -0.0946 |
| HMGTVIGMGRITAGGVNFRETEGGGVIEKLERDTLVEVLTVPSVIDTTHWYQVRYNNRTGYVQAPFVQLLG | -0.0951 |

| Sequence | soluble fraction (log2) |
| --- | --- |
| HMGTVKWFNATKGFGFIVPSDGGKDVFVHITAVQKAGLQGLNEGQKVSYEVAMERGKAAATNLR | -0.726 |
| HMGTVRFYNKERGFGFVVSDDGESVFLPAKALPDGVSDLSPGTRVDYGAALGKKGSQ | 0.153 |
| HMGVAAPMPGTITDVRVKVGDRVQPRTVVMMLEAMKMENEIFAGRAGVVSQVAVEKGASVNTGDLLISIDP | 0.129 |
| HMGVAASEVHREKKESSLQWRQSYNVATDQRRQGKTYKEITEFLNGAELKNSKGGTWSISGVRKMLM | 0.271 |
| HMGVARGQAQVTTRQHVVQPGETLYQISKQYGVTVAEILRYNADIEDNTVKVGQTLQIPTPLP | ≥ 0.62 |
| HMGVDMAPESIVGKKGVAATELRPAGKVEIHGQVYDAVSVGMFIKRGTGVKVVRYEAAQIYVEPE | 0.146 |
| HMGVEALTPRQREVLALMAQGRSNGWIAAELGLSEKAIVQHTSNIYDMLGLAVDADDHRRVLAVIHYLT | -1.25 |
| HMGVENDGYVLPRELKKGDTVLIADLGKEATVLSPVDRNGNVEVLAGAAKTRVKLKNLRLIE | 0.13 |
| HMGVEVPRGDGSTVVRVRAGSSLADFAERIGADPAALITVLFRMGEMATVNQSLDEDTFKLLGAELGYDVQ | -0.691 |
| HMGVGIAEAMKHVADEDYGDLSSEFQRIFSAVDGGSTLGDAVRAQMRATSSAGLRRTLSVLAMSVE | 0.208 |
| HMGVGTTDERLAVLNQIASRQTEALEKLGPNNPLVGLGQIRNTLSKMLEISGYPDSNQFFKQVPLDYEPPP | 0.173 |
| HMGVIDTLSGPQKAAAILVAIGRPSASRLLKHFNAEDLRKLAGHARTLEPISPLDFEHLVKQFEDSFAEG | -0.798 |
| HMGVIGADIRALRVSRGWTLSDLAEALDRSVGWLSQVERDVSEPALADIRRIAGIFDLPVSFFFSD | -2.86 |
| HMGVLDFSAQLLKHLEMNGGQTPLGDKSPAEEIYAVFGVSKKVFKKAVGDLYRKRLIEISSNGIRMTS | -0.968 |
| HMGVLGVDALAAAAEVSVDTVRYYQHLGLLEPPRREGRRAVYGPSHLARMGEIRRLAAAGFTLDQIRQLAE | -2.1 |
| HMGVPTEQQSLIGKSGIAATDLRPSGKVEIDGKRYDAVSNYAGFIAKGTPISVVRYETGQIYVE | 0.0415 |
| HMGYDDVIVINGKNETYGFPTKVEDDPVLSLVIKGDRSIDYAEERRLFYVAMTRTKNRVFFVAP | 0.0138 |
| HMGYGEQEAEATKYMSLHAIMSADETLSKMYTPENQHKLMTHVMEQNGIKNVKDYLTPPSELP | -0.102 |
| HMGYPYDTVTTAKVNLRAKRSTSSDILKKIPEGATVTVKGVTGTFASVDYNGTSGYVKVDYLV | 0.069 |
| HMGYSSKISELLTKYNMNASELAQKVGVPPTTIYSIIKRDSKKADIEVLIKIAKLFNVPVEYF | -0.99 |
| HMGYTPGVVIQKSAILEEINQPDLALGMMLEAVKKDSQNLDILNRLVTLLIDQKKNEDAEIYNKKIIT | 0.0254 |
| HMHAGMKSWTIQYEKSPIYGSFLMYKDGNIYIQKEDNVVVHFPLDRFSQNDQAILKSRIEKIDQINKSS | -0.0347 |
| HMHAPKIIVLTINPDKIRDVIGPGGKMIKSIVAATGVKMDVEDDGKIHISSSDQKAADEAIRMINEITAEA | 0.0184 |
| HMHAPLEVGSVVRIEGQKALGTILSISDREAIVALGALKTTIPLKRLHGVSPAEAQRHLRKTTPAQAVR | 0.0521 |
